From patent US20180086841A1 (Merck Sharp & Dohme, published 2018)

T1: His9G-tagged cynomolgus CD27 recombinant protein (cynomolgus, limits assumed)
T1 construct: In-house, transient transfection of HEK293 cells; also called Cyno CD27/His
T1 chain: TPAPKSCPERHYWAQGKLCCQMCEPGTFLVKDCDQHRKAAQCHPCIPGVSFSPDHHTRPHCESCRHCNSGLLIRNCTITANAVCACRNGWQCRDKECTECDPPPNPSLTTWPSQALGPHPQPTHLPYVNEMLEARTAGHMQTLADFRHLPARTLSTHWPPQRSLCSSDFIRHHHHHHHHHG

T2: Macaca mulatta CD27 (mmCD27) (Macaca mulatta (rhesus) / Macaca …, UniProt P26842 21-260 (human entry))
T2 construct: also called Rhesus CD27; rhesus monkey CD27
T2 chain: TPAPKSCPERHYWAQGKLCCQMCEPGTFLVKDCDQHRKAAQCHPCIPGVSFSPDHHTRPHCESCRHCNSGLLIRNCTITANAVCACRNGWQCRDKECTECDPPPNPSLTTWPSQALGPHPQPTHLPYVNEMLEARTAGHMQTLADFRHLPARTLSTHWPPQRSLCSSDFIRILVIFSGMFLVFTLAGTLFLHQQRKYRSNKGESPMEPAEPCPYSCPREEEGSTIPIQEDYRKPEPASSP

T3: human CD27 A59T-Fc fusion protein (human, UniProt P26842 21-191)
T3 construct: not shown: Fc part
T3 chain: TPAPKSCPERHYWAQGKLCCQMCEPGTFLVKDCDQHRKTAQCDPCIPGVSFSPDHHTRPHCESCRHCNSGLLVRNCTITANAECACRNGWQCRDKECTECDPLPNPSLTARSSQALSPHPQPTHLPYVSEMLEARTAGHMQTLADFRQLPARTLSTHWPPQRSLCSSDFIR

T4: rhesus macaque CD27-Fc fusion protein (rhesus macaque, UniProt P26842 21-191 (human entry), limits assumed)
T4 construct: not shown: Fc part
T4 chain: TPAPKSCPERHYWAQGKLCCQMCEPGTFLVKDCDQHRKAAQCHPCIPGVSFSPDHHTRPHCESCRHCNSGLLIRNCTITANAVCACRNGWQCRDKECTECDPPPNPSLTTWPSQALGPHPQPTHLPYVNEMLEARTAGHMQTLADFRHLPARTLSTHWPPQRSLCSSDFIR


How the values were obtained:
[1] = biological target: T5, human CD27 (human, UniProt P26842 21-260); experiment: flow cytometry MFI, CD8+ T cells in human peripheral blood, n=4
T5 construct: also called hCD27; HsCD27
Procedure: (§1) Upon receipt, blood was visually confirmed to be devoid of obvious signs of lysis or clotting. […] Red blood cells (RBCs) were then lysed by incubation with 1.7 mL of Ammonium-Chloride-Potassium red blood cell lysing solution (Life Technologies, catalog no. A10492-01) for 5 minutes. The lysis step was repeated once more with 2 ml of ACK lysing solution, and then again with 300 ml of ACK lysing solution. Cells were then washed after adding 1.7 ml of phosphate buffered saline (PBS) (Hyclone, catalog no. SH30028.02). […] After a final wash in SB, samples were acquired in a LSR-Fortessa flow cytometer (BD Biosciences) using the high throughput sampler and data analyzed by FlowJo software (Tree Star Inc).

[2] = biological target: T6, His9G-tagged human CD27 recombinant protein (human, UniProt P26842 21-191); experiment: SPR Biacore 4000, antibody captured on anti-human Fc, His9G-tagged CD27 injected, 1:1 fit;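 also: Double-referenced SPR (blank anti-Fc surface and buffer injection subtracted), KD derived from association and dissociation rate constants, with human and cynomolgus CD27 as analytes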
T6 construct: In-house, transient transfection of HEK293 cells; also called Human CD27/His
Source text: (§2) Flow cell spots modified with anti-human Fc antibody but lacking CD27 antibodies were used as reference. […] The chip surface was regenerated with a 30 second injection of 3M MgCl₂ after each injection cycle.
(§3) Data were double referenced by subtracting the response from a blank surface and that from a buffer injection and used for analyzing the rate constant of association (kₐ) and dissociation (kd), and the equilibrium dissociation constant KD. The resulting data sets were fitted with a Langmuir 1:1 binding model using the Biacore 4000 BIAevaluation software, version 1.0 (GE/Biacore).

[3] = biological target: T1, His9G-tagged cynomolgus CD27 …; experiment: as above
Source text: as §2, §3

[4] = biological target: T2, Macaca mulatta CD27 (mmCD27); experiment: cell ELISA on CD27-transfected CHOK1 cells, n=2
Procedure: (§4) Purified antibodies were assayed for binding to human CD27 expressing CHOK1 cells, human CD27 A59T expressing CHOK1 cells, and cross-reactivity to rhesus CD27 expressing CHOK1 cells using a cell-based ELISA format. Human CD27 expressing CHOK1 cells, human CD27 A59T expressing CHOK1 cells, and rhesus CD27 expressing CHOK1 cells were plated in 96-well tissue-culture plates in 50 μl of DMEM/F12, 10% BCS and gentamycin (CHO-K1 media). Cells were plated at either 2×10⁴ cells/well two days prior to the assay or 4×10⁴ cells/well one day prior to the assay. Media was removed from the wells prior to the assay followed by incubation of mAb in 100 μL fresh culture medium at a starting concentration of 10 μg/mL and 8 step 1:4 serial dilutions. The antibodies were incubated for 30-60 minutes at room temperature and washed 3 times with PBS/0.05% Tween 20 using a cell ELISA washing protocol on the Biotek EL405x Select CW plate washer. […] Assay plates were washed as above and developed with TMB and stopped with TMB stop solution (KPL cat#50-85-06) or 0.1N phosphoric acid. The plate was read on a Molecular Devices VersaMax plate reader at 450 nm/650 nm. Titration curves were used to determine the half-maximal effective concentration (EC₅₀).

[5] = biological target: T5, human CD27; experiment: cell ELISA on CD27-transfected CHOK1 cells, n=2
Procedure: as §4

[6] = biological target: T7, human CD27 (A59T) (human, UniProt P26842 21-260); experiment: cell ELISA on CD27-transfected CHOK1 cells, n=2
T7 construct: also called hCD27 (A59T); human CD27 variant p.Ala59Thr
Procedure: as §4

[7] = biological target: T2, Macaca mulatta CD27 (mmCD27); experiment: cell-based or functional assay
[8] = biological target: T2, Macaca mulatta CD27 (mmCD27); experiment: flow cytometry MFI, CD8+ T cells in rhesus peripheral blood, n=4
Procedure: as §1

[9] = biological target: T5, human CD27; experiment: flow cytometry MFI, CD4+ T cells in human peripheral blood, n=4
Procedure: as §1

[10] = biological target: T5, human CD27; experiment: flow cytometry MFI, CD4+ T cells of human PBMC, N=2 donors
Procedure: (§5) Labeled cells were washed by re-suspending them in 150 ul of staining buffer (SB) followed by centrifugation at 300 g for 5 minutes. Cells were then resuspended in 100 ul of SB containing primary anti-CD27 antibodies at various concentrations, incubated in the dark at 4° C. for 30 minutes, followed by washing and centrifugation steps as previously described. […] Cells were incubated for 30 minutes at 4° C. in the dark, followed by washing and centrifugation steps. Next, cells were stained with a cocktail of phenotypic antibodies for surface markers (CD3, CD4, CD8, CD11b) and incubated for 30 minutes at 4° C. in the dark, followed by washing and centrifugation steps. […] Samples were acquired in a LSR-Fortessa flow cytometer (BD Biosciences) using the high throughput sampler and data analyzed by FlowJo software (Tree Star Inc).

[11] = biological target: T5, human CD27; experiment: cell ELISA on human CD27 CHOK1 cells, hIgG1
Procedure: (§6) Purified antibodies were assayed for binding to human CD27 expressing CHOK1 cells using a cell-based ELISA format. Human CD27 expressing CHOK1 cells were plated in 96-well tissue-culture plates in 50 μl of DMEM/F12, 10% BCS (bovine calf serum) (CHO-K1 media). Cells were plated at either 2×10⁴ cells/well two days prior to the assay or 4×10⁴ cells/well one day prior to the assay. Media was removed from the wells prior to the assay followed by incubation of mAb in 100 μL fresh culture medium at a starting concentration of 10 μg/mL and 8 step 1:5 serial dilutions (hIgG4 antibodies) or starting concentration of 50 μg/mL and 8 step 1:5 serial dilutions (hIgG1 antibodies). The antibodies were incubated for 30-60 minutes at room temperature and washed 3 times with PBS/0.05% Tween 20 using a cell ELISA washing protocol on the Biotek EL405x Select CW plate washer.

[12] = biological target: T2, Macaca mulatta CD27 (mmCD27); experiment: cell-based or functional assay
[13] = biological target: T5, human CD27; experiment: cell-based or functional assay
[14] = biological target: T7, human CD27 (A59T); experiment: cell-based or functional assay
[15] = biological target: T5, human CD27; experiment: flow cytometry MFI, CD8+ T cells of human PBMC, N=2 donors
Procedure: as §5

[16] = biological target: T8, human CD27-Fc fusion protein (human, UniProt P26842 21-191); experiment: SPR Biacore T200, CD27-Fc amine-coupled, antibody injected, 1:1 Langmuir fit
T8 construct: not shown: Fc part

[17] = biological target: T3, human CD27 A59T-Fc fusion protein; experiment: as above
Source text: (§7) Antibody injections lasted 180 seconds and after the injections dissociation was monitored for 900 seconds. Following each injection cycle the antigen surface was regenerated with a 30 second injection of 3M MgCl₂.
(§8) Sensograms were “double referenced” by subtracting the response from a blank surface and that from a buffer injection and used for analyzing the rate constant of association (ka) and dissociation (kd), and the equilibrium dissociation constant KD. The resulting data sets were fitted with a 1:1 Langmuir Binding Model using the Biacore T200 evaluation software (version 2.0).

[18] = biological target: T4, rhesus macaque CD27-Fc fusion protein; experiment: as above
Source text: as §7, §8

[19] = biological target: T2, Macaca mulatta CD27 (mmCD27); experiment: flow cytometry MFI, CD4+ T cells in rhesus peripheral blood, n=4
Procedure: as §1

[20] = biological target: T5, human CD27; experiment: flow cytometry on primary T cells
[21] = biological target: T5, human CD27; experiment: cell ELISA on transfected CHO cells
Procedure: as §6

[22] = biological target: T2, Macaca mulatta CD27 (mmCD27); experiment: cell-based or functional assay
[23] = biological target: T5, human CD27; experiment: cell-based or functional assay; remark: listed apart in the source
[24] = biological target: T7, human CD27 (A59T); experiment: cell-based or functional assay; remark: listed apart in the source

Kd [2] [nM] | Kd [3] [nM] | EC50 [10] [nM] | EC50 [11] [nM] | EC50 [15] [nM] | EC50 relative to 131AVH6VL6-hIgG1 [20] | fold EC50 against 131AVH6VL6-hIgG1 [21] [fold] | Binder | also measured
65.2 | 51.5 | 0.137 | 0.155 | 0.123 |  |  | 131AVH6VL6-hIgG1 (antibody, also called hCD27.131A VH6VL6 huIgG1) heavy: not shown light: EIVLTQSPATLSLSPGERATLSCSASSSVSYMHWYQQKPGQAPKRWIYDTSKLASGVPARFSGSGSGTDYSLTISSLEPEDFAVYYCQQWNSYPFTFGQGTKLEIKRTVAAPSVFIFPPSDEQLKSGTASVVCLLNNFYPREAKVQWKVDNALQSGNSQESVTEQDSKDSTYSLSSTLTLSKADYEKHKVYACEVTHQGLSSPVTKSFNRGEC | EC50 [1]: 0.3 nM; EC50 [4]: 0.054 nM; EC50 [5]: 0.072 nM; EC50 [6]: 0.097 nM; NF-κB-luciferase reporter assay, potency against human CD27 [7]: ~7 fold; EC50 [8]: 0.22 nM; EC50 [9]: 0.32 nM; NF-κB-luciferase reporter assay, EC50 [12]: 0.29 nM; NF-κB-luciferase reporter assay, Emax [12]: 2.11 fold change; NF-κB-luciferase reporter assay, EC50 [13]: 2.22 nM; NF-κB-luciferase reporter assay, Emax [13]: 2.96 fold change; NF-κB-luciferase reporter assay, EC50 [14]: 4.72 nM; NF-κB-luciferase reporter assay, Emax [14]: 3.22 fold change; Kd [16]: 5.1 nM; Kd [17]: 7.3 nM; Kd [18]: 4.3 nM; EC50 [19]: 0.17 nM
 |  |  |  |  |  |  | 131AVH6VL6-hIgG2 (antibody, also called 131A6 IgG2 (humanized)) heavy: EIQLVQSGAEVKKPGASVKVSCKASGYTFTNYGMNWVKQAPGQGLKWMGWINTNTGEPTYAEEFKGRFTFTLDTSISTAYMELSSLRSEDTAVYYCAREGDAMDYWGQGTTVTVSSASTKGPSVFPLAPCSRSTSESTAALGCLVKDYFPEPVTVSWNSGALTSGVHTFPAVLQSSGLYSLSSVVTVPSSNFGTQTYTCNVDHKPSNTKVDKTVERKCCVECPPCPAPPVAGPSVFLFPPKPKDTLMISRTPEVTCVVVDVSHEDPEVQFNWYVDGVEVHNAKTKPREEQFNSTFRVVSVLTVVHQDWLNGKEYKCKVSNKGLPAPIEKTISKTKGQPREPQVYTLPPSREEMTKNQVSLTCLVKGFYPSDIAVEWESNGQPENNYKTTPPMLDSDGSFFLYSKLTVDKSRWQQGNVFSCSVMHEALHNHYTQKSLSLSPGK light: EIVLTQSPATLSLSPGERATLSCSASSSVSYMHWYQQKPGQAPKRWIYDTSKLASGVPARFSGSGSGTDYSLTISSLEPEDFAVYYCQQWNSYPFTFGQGTKLEIKRTVAAPSVFIFPPSDEQLKSGTASVVCLLNNFYPREAKVQWKVDNALQSGNSQESVTEQDSKDSTYSLSSTLTLSKADYEKHKVYACEVTHQGLSSPVTKSFNRGEC | Kd [16]: 6.4 nM; Kd [17]: 8.2 nM; Kd [18]: 5.5 nM
38.9 | 31.7 | 0.113 | 0.207 | 0.111 | ≤ 10 % above the EC50 of 131AVH6VL6-hIgG1 | ≤ 2 | hCD27.131A VH7VL7 huIgG1 (antibody, V domains shown) VH: EIQLVQSGAEVKKPGASVKISCKASGYTFTNYGMNWVKQAPGQGLKWMGWINTNTGEPTYAEEFKGRFTFTLDTSATTAYLEISSLRSEDTAVYYCAREGDAMDYWGQGTTVTVSS VL: EIVLTQSPATLSLSPGERATLSCSASSSVSYMHWYQQKPGQAPKRWIYDTSKLASGVPARFSGSGSGTSYSLTISSLEPEDFATYYCQQWNSYPFTFGQGTKLEIK | 
44.9 | 36.5 | 0.118 | 0.144 | 0.118 | ≤ 10 % above the EC50 of 131AVH6VL6-hIgG1 | ≤ 2 | hCD27.131A VH7VL8 huIgG1 (antibody, V domains shown) VH: EIQLVQSGAEVKKPGASVKISCKASGYTFTNYGMNWVKQAPGQGLKWMGWINTNTGEPTYAEEFKGRFTFTLDTSATTAYLEISSLRSEDTAVYYCAREGDAMDYWGQGTTVTVSS VL: EIVLTQSPATLSASPGERVTLSCSASSSVSYMHWYQQKPGQAPKRWIYDTSKLASGVPARFSGSGSGTDYSLTISSMEPEDFAVYYCQQWNSYPFTFGQGTKLEIK | 
63.3 | 44.1 | 0.115 | 0.262 | 0.111 | ≤ 10 % above the EC50 of 131AVH6VL6-hIgG1 | ≤ 2 | hCD27.131A VH8VL7 huIgG1 (antibody, V domains shown) VH: EIQLVQSGAEVKKPGASVKVSCKASGYTFTNYGMNWVKQAPGQGLKWMGWINTNTGEPTYAEEFKGRFTFTLDTSISTAYMELSSLRNEDTAVYYCAREGDAMDYWGQGTTVTVSS VL: EIVLTQSPATLSLSPGERATLSCSASSSVSYMHWYQQKPGQAPKRWIYDTSKLASGVPARFSGSGSGTSYSLTISSLEPEDFATYYCQQWNSYPFTFGQGTKLEIK | 
61 | 32.3 | 0.135 | 0.145 | 0.131 | ≤ 10 % above the EC50 of 131AVH6VL6-hIgG1 | ≤ 2 | hCD27.131A VH8VL8 huIgG1 (antibody, V domains shown) VH: EIQLVQSGAEVKKPGASVKVSCKASGYTFTNYGMNWVKQAPGQGLKWMGWINTNTGEPTYAEEFKGRFTFTLDTSISTAYMELSSLRNEDTAVYYCAREGDAMDYWGQGTTVTVSS VL: EIVLTQSPATLSASPGERVTLSCSASSSVSYMHWYQQKPGQAPKRWIYDTSKLASGVPARFSGSGSGTDYSLTISSMEPEDFAVYYCQQWNSYPFTFGQGTKLEIK | 
64.4 | 46.6 | 0.124 | 0.298 | 0.113 | ≤ 10 % above the EC50 of 131AVH6VL6-hIgG1 | ≤ 2 | hCD27.131A VH8VL6 huIgG1 (antibody, V domains shown) VH: EIQLVQSGAEVKKPGASVKVSCKASGYTFTNYGMNWVKQAPGQGLKWMGWINTNTGEPTYAEEFKGRFTFTLDTSISTAYMELSSLRNEDTAVYYCAREGDAMDYWGQGTTVTVSS VL: EIVLTQSPATLSLSPGERATLSCSASSSVSYMHWYQQKPGQAPKRWIYDTSKLASGVPARFSGSGSGTDYSLTISSLEPEDFAVYYCQQWNSYPFTFGQGTKLEIK | 
 |  |  |  |  |  |  | hCD27.15-4B IgG4 (antibody, V domains shown) VH: QVQLVQSGAEVKKPGASVKVSCKASGFIIKATYMHWVRQAPGQRLEWMGRIDPANGETKYDPKFQVRVTITADTSASTAYMELSSLRSEDTAVYYCARYAWYFDVWGQGTLVTVSS VL: DIQMTQSPSSLSASVGDRVTITCRASENIYSFLAWYQQKPGKAPKLLIYHAKTLAEGVPSRFSGSGSGTDFTLTISSLQPEDFATYYCQHYYGSPLTFGQGTKVEIKR | NF-κB-luciferase reporter assay, Fold Change values at 2.5 µg/ml [22]: 0.99 fold change; NF-κB-luciferase reporter assay, Fold Change values at 2.5 µg/ml [23]: 1.82 fold change; NF-κB-luciferase reporter assay, Fold Change values at 2.5 µg/ml [24]: 0.97 fold change
